Reference: patent US20250339569A1, “CARBONIC ANHYDRASE IX LIGANDS” (priority 2021, published 2025)

Target: human carbonic anhydrase 9 (CAIX) (human), Q16790
Assay: FACS competition on HT-29 cells, competitor tracer 3BP-2776; category A = pIC50 >8.0

**Q.** How did the pIC50 turn out when VCCEPDWLTWCC (modifications not checked) [3BP-4179] was run?
**A.** > 8 pic50
